Measured values taken from patent publication US20090275130A1.

Target: receptors for SCF (kit) on EML clone 1 cells (UniProt P05532)
Assay: cell-based or functional assay

Sequence of UniProt P05532 (P05532 25-979 limits assumed): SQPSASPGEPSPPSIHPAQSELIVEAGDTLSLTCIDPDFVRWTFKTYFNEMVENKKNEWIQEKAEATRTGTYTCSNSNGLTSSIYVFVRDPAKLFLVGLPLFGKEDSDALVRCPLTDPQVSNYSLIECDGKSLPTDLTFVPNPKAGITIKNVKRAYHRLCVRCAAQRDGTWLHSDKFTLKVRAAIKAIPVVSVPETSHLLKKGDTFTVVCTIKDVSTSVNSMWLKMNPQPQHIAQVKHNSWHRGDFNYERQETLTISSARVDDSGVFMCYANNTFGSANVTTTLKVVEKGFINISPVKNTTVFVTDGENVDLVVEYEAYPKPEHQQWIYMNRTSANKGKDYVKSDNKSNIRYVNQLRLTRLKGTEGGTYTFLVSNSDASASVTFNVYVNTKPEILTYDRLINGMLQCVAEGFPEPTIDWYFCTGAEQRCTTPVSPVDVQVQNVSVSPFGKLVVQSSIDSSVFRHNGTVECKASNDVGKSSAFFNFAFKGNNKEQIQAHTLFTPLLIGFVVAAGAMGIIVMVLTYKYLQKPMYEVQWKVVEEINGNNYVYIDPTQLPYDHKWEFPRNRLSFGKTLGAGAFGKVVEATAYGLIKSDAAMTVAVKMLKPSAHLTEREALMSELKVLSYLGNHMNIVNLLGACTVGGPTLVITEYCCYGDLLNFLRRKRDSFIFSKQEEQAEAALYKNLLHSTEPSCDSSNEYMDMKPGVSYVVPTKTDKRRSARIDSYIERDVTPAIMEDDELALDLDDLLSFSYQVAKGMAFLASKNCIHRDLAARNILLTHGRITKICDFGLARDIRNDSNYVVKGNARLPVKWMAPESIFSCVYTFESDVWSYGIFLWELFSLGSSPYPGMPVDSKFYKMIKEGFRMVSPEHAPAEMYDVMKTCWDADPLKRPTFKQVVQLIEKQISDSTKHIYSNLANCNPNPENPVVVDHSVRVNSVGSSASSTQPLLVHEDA

- fold-increase over control of cell proliferation of EML cells (total DNA, 5 days), 10 nM SCF: 1.25 fold
- fold-increase over control of cell proliferation of EML cells (total DNA, 5 days), 50 nM SCF: 2.4 fold
Substance: Stem Cell Factor (SCF) (ligand)
